Measured values: patent publication US20180362625A1 (COMMONWEALTH SCIENTIFIC AND INDUSTRIAL RESEARCH ORGANISATION, published 2018)

Biological target: T1, interferon response factor 3 (IRF3), endogenous in HeLa cells (human, UniProt Q14653 1-427)
T1 construct: Phosphorylation state after poly(I:C) was not defined for the immunoprecipitated material
T1 sequence (looked up): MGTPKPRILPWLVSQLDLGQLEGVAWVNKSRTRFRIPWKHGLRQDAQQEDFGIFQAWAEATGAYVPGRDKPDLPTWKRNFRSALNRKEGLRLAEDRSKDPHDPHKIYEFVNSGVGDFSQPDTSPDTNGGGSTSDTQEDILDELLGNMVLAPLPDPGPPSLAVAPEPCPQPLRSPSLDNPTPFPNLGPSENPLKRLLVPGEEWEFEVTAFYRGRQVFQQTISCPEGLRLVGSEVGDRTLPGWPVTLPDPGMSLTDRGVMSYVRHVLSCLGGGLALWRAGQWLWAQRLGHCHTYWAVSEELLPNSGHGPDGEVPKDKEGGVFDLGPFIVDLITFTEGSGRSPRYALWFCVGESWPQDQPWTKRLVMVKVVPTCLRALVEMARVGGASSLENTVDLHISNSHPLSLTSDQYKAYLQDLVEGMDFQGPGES
Experiment: co-immunoprecipitation from HeLa lysates with immobilised anti-IRF3 antibody, western blot, -/+ poly(I:C)
Method: Immunoprecipitation and cell fractionation: For immunoprecipitation, 25 μg of antibody was coupled to 50 μg of agarose beads using the Pierce direct immunoprecipitation kit as specified by the manufacturers (Life Technologies). Cells were lysed in NP-40 lysis buffer provided and pre-cleared with a non-specific isotype agarose control at 4° C. for 1 hour, then incubated with ˜1.5 μg agarose-coupled antibody at 4° C. overnight. Resin was washed multiple times then elution performed using non-reducing sample buffer (containing 2% w/v SDS) at 100° C. for 10 mins. Cytosolic and nuclear fractions were prepared from cells using the Pierce NE-PER cell fractionation kit (Life Technologies) as specified by the manufacturers, and total protein quantitated by BCA assay (Life Technologies) before western blot analyses.
To access whether C6orf106 binds IRF3, C6orf106-flag was co-expressed with GFP −/+ poly(I:C) as described above, then performed a direct co-immunoprecipitation with immobilised IRF3 antibodies. As shown in FIG. 10A C6orf106 could be detected in IRF3-immunoprecipitated lysates, and this was increased approximately four-fold in the presence of poly(I:C). […] Cells were lysed and subjected to […] immunoprecipitation with an anti-IRF3 antibody. IP samples and input controls were probed with anti-FLAG antibody for western blotting. […]

B1: Flag-tagged C6orf106 (C6orf106-FLAG, expressed from pCAGGs-C6-FLAG) (other)
chain: MEGMDVDLDPELMQKFSCLGTTDKDVLISEFQRLLGFQLNPAGCAFFLDMTNWNLQAAIGAYYDFESPNISVPSMSFVEDVTIGEGESIPPDTQFVKTWRIQNSGAEAWPPGVCLKYVGGDQFGHVNMVMVRSLEPQEIADVSVQMCSPSRAGMYQGQWRMCTATGLYYGDVIWVILSVEVGGLLGVTQQLSSFETEFNTQPHRKVEGNFNPFASPQKNRQSDENNLKDPGGSEFDSISKNTWAPAPDTWAPAPDQTEQDQNRLSQNSVNLSPSSHANNLSVVTYSKGLHGPYPFGQSGDYKDDDDK
notes: Over-expressed in HeLa or HEK293T cells and tested in cell lysates by co-immunoprecipitation
fold increase of C6orf106 co-immunoprecipitated with IRF3 in the presence of poly(I:C) versus without: ~4 fold
